This is an account of results in IntAct's records for PubMed 29892012.

B1: Rho guanine nucleotide exchange factor 3 (Homo sapiens), Q9NR81 (parent)
chain: MVAKDYPFYLTVKRANCSLELPPASGPAKDAEEPSNKRVKPLSRVTSLANLIPPVKATPLKRFSQTLQRSISFRSESRPDILAPRPWSRNAAPSSTKRRDSKLWSETFDVCVNQMLTSKEIKRQEAIFELSQGEEDLIEDLKLAKKAYHDPMLKLSIMTEQELNQIFGTLDSLIPLHEELLSQLRDVRKPDGSTEHVGPILVGWLPCLSSYDSYCSNQVAAKALLDHKKQDHRVQDFLQRCLESPFSRKLDLWNFLDIPRSRLVKYPLLLREILRHTPNDNPDQQHLEEAINIIQGIVAEINTKTGESECRYYKERLLYLEEGQKDSLIDSSRVLCCHGELKNNRGVKLHVFLFQEVLVITRAVTHNEQLCYQLYRQPIPVKDLLLEDLQDGEVRLGGSLRGAFSNNERIKNFFRVSFKNGSQSQTHSLQANDTFNKQQWLNCIRQAKETVLCAAGQAGVLDSEGSFLNPTTGSRELQGETKLEQMDQSDSESDCSMDTSEVSLDCERMEQTDSSCGNSRHGESNV
B2: CGG triplet repeat-binding protein 1 (Homo sapiens), Q9UFW8 (parent)
chain: MERFVVTAPPARNRSKTALYVTPLDRVTEFGGELHEDGGKLFCTSCNVVLNHVRKSAISDHLKSKTHTKRKAEFEEQNVRKKQRPLTASLQCNSTAQTEKVSVIQDFVKMCLEANIPLEKADHPAVRAFLSRHVKNGGSIPKSDQLRRAYLPDGYENENQLLNSQDC
partner: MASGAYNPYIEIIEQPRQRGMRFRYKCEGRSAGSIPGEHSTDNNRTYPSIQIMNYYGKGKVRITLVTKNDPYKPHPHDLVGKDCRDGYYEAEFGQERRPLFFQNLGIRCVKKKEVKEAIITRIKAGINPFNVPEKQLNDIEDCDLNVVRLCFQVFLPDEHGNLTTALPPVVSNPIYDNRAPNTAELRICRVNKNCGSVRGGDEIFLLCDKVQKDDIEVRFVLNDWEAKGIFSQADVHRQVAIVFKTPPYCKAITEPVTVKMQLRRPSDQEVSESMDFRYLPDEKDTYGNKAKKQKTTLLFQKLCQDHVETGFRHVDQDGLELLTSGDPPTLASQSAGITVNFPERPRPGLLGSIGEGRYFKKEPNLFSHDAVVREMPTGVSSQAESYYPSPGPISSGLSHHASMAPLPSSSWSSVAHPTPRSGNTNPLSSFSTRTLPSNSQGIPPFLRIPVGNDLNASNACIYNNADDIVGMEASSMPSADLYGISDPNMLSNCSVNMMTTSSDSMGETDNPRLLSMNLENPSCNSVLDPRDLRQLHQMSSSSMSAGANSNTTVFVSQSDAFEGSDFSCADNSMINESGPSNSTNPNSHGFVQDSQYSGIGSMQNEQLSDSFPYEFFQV
B3: Peripheral plasma membrane protein CASK (Homo sapiens), O14936 (parent)
chain: MADDDVLFEDVYELCEVIGKGPFSVVRRCINRETGQQFAVKIVDVAKFTSSPGLSTEDLKREASICHMLKHPHIVELLETYSSDGMLYMVFEFMDGADLCFEIVKRADAGFVYSEAVASHYMRQILEALRYCHDNNIIHRDVKPHCVLLASKENSAPVKLGGFGVAIQLGESGLVAGGRVGTPHFMAPEVVKREPYGKPVDVWGCGVILFILLSGCLPFYGTKERLFEGIIKGKYKMNPRQWSHISESAKDLVRRMLMLDPAERITVYEALNHPWLKERDRYAYKIHLPETVEQLRKFNARRKLKGAVLAAVSSHKFNSFYGDPPEELPDFSEDPTSSGLLAAERAVSQVLDSLEEIHALTDCSEKDLDFLHSVFQDQHLHTLLDLYDKINTKSSPQIRNPPSDAVQRAKEVLEEISCYPENNDAKELKRILTQPHFMALLQTHDVVAHEVYSDEALRVTPPPTSPYLNGDSPESANGDMDMENVTRVRLVQFQKNTDEPMGITLKMNELNHCIVARIMHGGMIHRQGTLHVGDEIREINGISVANQTVEQLQKMLREMRGSITFKIVPSYRTQSSSCERDSPSTSRQSPANGHSSTNNSVSDLPSTTQPKGRQIYVRAQFEYDPAKDDLIPCKEAGIRFRVGDIIQIISKDDHNWWQGKLENSKNGTAGLIPSPELQEWRVACIAMEKTKQEQQASCTWFGKKKKQYKDKYLAKHNAVFDQLDLVTYEEVVKLPAFKRKTLVLLGAHGVGRRHIKNTLITKHPDRFAYPIPHTTRPPKKDEENGKNYYFVSHDQMMQDISNNEYLEYGSHEDAMYGTKLETIRKIHEQGLIAILDVEPQALKVLRTAEFAPFVVFIAAPTITPGLNEDESLQRLQKESDILQRTYAHYFDLTIINNEIDETIRHLEEAVELVCTAPQWVPVSWVY
partner: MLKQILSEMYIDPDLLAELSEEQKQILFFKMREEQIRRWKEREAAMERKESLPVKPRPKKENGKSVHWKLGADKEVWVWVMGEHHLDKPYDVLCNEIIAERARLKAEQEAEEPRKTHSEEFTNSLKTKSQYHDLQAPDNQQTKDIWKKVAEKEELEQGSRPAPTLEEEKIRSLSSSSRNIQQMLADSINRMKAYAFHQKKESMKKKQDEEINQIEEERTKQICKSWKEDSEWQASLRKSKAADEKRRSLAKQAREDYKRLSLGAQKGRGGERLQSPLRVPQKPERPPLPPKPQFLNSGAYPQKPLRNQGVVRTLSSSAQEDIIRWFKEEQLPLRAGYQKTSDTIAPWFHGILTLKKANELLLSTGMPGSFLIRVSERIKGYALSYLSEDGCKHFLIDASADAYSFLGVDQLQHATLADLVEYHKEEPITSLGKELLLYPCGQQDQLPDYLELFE
B4: Late cornified envelope protein 1B (Homo sapiens), Q5T7P3 (parent)
chain: MSCQQNQQQCQPPPKCIPKCPPKCLTPRCPPKCPPKCPPVSSCCSVSSGGCCGSSSGGSCGSSSGGCCSSGGGGCCLSHHRRRRSHCHRPQSSGCCSQPSGGSSCCGGGSGQHSGGCC
partner: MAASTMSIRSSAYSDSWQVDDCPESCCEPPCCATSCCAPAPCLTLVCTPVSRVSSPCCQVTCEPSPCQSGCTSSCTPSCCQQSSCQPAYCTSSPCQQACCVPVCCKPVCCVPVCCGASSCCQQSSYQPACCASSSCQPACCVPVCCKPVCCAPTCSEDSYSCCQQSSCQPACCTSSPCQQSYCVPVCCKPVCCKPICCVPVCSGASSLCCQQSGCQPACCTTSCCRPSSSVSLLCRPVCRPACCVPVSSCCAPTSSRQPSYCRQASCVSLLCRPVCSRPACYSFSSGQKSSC
B5: Acetylcholine receptor subunit gamma (Homo sapiens), P07510 (parent)
chain: MHGGQGPLLLLLLLAVCLGAQGRNQEERLLADLMQNYDPNLRPAERDSDVVNVSLKLTLTNLISLNEREEALTTNVWIEMQWCDYRLRWDPRDYEGLWVLRVPSTMVWRPDIVLENNVDGVFEVALYCNVLVSPDGCIYWLPPAIFRSACSISVTYFPFDWQNCSLIFQSQTYSTNEIDLQLSQEDGQTIEWIFIDPEAFTENGEWAIQHRPAKMLLDPAAPAQEAGHQKVVFYLLIQRKPLFYVINIIAPCVLISSVAILIHFLPAKAGGQKCTVAINVLLAQTVFLFLVAKKVPETSQAVPLISKYLTFLLVVTILIVVNAVVVLNVSLRSPHTHSMARGVRKVFLRLLPQLLRMHVRPLAPAAVQDTQSRLQNGSSGWSITTGEEVALCLPRSELLFQQWQRQGLVAAALEKLEKGPELGLSQFCGSLKQAAPAIQACVEACNLIACARHQQSHFDNGNEEWFLVGRVLDRVCFLAMLSLFICGTAGIFLMAHYNRVPALPFPGDPRPYLPSPD
partner: B4 partner
B6: Ribosome production factor 1 (Homo sapiens), Q9H9Y2 (parent)
chain: MAKAGDKSSSSGKKSLKRKAAAEELQEAAGAGDGATENGVQPPKAAAFPPGFSISEIKNKQRRHLMFTRWKQQQRKEKLAAKKKLKKEREALGDKAPPKPVPKTIDNQRVYDETTVDPNDEEVAYDEATDEFASYFNKQTSPKILITTSDRPHGRTVRLCEQLSTVIPNSHVYYRRGLALKKIIPQCIARDFTDLIVINEDRKTPNGLILSHLPNGPTAHFKMSSVRLRKEIKRRGKDPTEHIPEIILNNFTTRLGHSIGRMFASLFPHNPQFIGRQVATFHNQRDYIFFRFHRYIFRSEKKVGIQELGPRFTLKLRSLQKGTFDSKYGEYEWVHKPREMDTSRRKFHL
partner: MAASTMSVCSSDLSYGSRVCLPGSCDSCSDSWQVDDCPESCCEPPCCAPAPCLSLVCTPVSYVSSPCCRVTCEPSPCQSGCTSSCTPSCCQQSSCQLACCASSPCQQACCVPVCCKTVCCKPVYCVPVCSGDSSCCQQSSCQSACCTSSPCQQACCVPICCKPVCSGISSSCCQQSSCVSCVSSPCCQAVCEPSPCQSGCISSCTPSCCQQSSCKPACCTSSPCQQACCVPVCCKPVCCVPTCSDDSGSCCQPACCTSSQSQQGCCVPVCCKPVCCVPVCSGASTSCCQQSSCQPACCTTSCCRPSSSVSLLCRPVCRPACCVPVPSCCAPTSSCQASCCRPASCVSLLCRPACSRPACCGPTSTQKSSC

One assay covers variants of B1. As to conditions: with tri23_human TRIM23, P36406.
Chain of tri23_human TRIM23, P36406 (P36406 whole entry): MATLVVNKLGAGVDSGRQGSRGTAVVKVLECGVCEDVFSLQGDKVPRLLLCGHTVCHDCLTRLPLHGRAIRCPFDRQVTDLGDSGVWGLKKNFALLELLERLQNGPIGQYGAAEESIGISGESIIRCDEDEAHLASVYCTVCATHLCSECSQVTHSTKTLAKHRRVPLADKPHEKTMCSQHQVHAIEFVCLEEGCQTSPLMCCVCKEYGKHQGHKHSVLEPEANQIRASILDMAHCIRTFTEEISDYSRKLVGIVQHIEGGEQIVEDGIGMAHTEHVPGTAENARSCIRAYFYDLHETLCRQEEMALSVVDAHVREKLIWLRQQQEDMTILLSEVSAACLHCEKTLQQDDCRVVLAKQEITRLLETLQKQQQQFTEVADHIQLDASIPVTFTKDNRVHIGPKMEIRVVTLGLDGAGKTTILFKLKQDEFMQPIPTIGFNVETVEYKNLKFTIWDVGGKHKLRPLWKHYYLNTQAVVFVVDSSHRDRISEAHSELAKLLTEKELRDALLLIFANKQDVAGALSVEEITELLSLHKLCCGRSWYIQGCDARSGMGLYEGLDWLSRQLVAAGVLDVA
For P34S, the “effect of a mutation on the interaction” value was “with no effect”.

Variants of B2 are the subject of a further assay. As to conditions: with rel_human REL.
For R54C, the “effect of a mutation on the interaction” value is listed as “disrupting interaction strength”.

In another assay the parent is B3. Particulars: with sh24a_human SH2D4A.
With G197R, the “effect of a mutation on the interaction” value was “with no effect”.

Another assay covers variants of B4. As to conditions: with kr109_human KRTAP10-9, P60411.
As for C16Y, the “effect of a mutation on the interaction” value was “disrupting interaction strength”.

Variants of B5 are the subject of the next assay. Particulars: with kr109_human KRTAP10-9, P60411.
I448T: the “effect of a mutation on the interaction” value was “with no effect”.

Variants of B6 are the subject of a further assay. Particulars: with kr107_human KRTAP10-7, P60409.
In the case of P49T, the “effect of a mutation on the interaction” value is listed as “with no effect”.
